Data: paper PMC9600955

Molecular target: LapD2 purified in isolation (Streptococcus intermedius GC1825)
Test: crystal structure; LapD2 at 10 mg/mL, hanging drop, 0.2 M lithium sulfate, 0.1 M Tris-HCl pH 8.0, 30% PEG 4000; SAD phasing, native data to 2.20 Å

Substance: LapD2 purified in isolation (natural protein)
- stoichiometry N: 2
